{
  "source": "paper PMC9530649",
  "about": "(Cancer Immunology Research, 2022)",
  "molecules": {"B1": {"name": "LAG3.1-G4P (antibody, V domains shown)", "VH": "QVQLQQWGAGLLKPSETLSLTCAVYGGSFSDYYWNWIRQPPGKGLEWIGEINHNGNTNSNPSLKSRVTLSLDTSKNQFSLKLRSVTAADTAVYYCAFGYSDYEYNWFDPWGQGTLVTVSS", "VL": "EIVLTQSPATLSLSPGERATLSCRASQSISSYLAWYQQKPGQAPRLLIYDASNRATGIPARFSGSGSGTDFTLTISSLEPEDFAVYYCQQRSNWPLTFGQGTNLEIK"}, "B2": {"name": "LAG-3.1-G4P-FITC (fluoresceinated LAG3.1-G4P, parent antibody of relatlimab) (antibody, V domains shown)", "VH": "B1 VH", "VL": "B1 VL"}, "B3": {"name": "recombinant human fibrinogen-like protein-1 (FGL1)–mFc fusion protein (Fc fusion)", "chain": "LEDCAQEQMRLRAQVRLLETRVKQQQVKIKQLLQENEVQFLDKGDENTVIDLGSKRQYADCSEIFNDGYKLSGFYKIKPLQSPAEFSVYCDMSDGGGWTVIQRRSDGSENFNRGWKDYENGFGNFVQKHGEYWLGNKNLHFLTTQEDYTLKIDLADFEKNSRYAQYKNFKVGDEKNFYELNIGEYSGTAGDSLAGNFHPEVQWWASHQRMKFSTWDRDHDNYEGNCAEEDQSGWWFNRCHSANLNGVYYSGPYTAKTDNGIVWYTWHGWWYSLKSVVMKIRPNDFIPNVI"}, "B4": {"name": "recombinant human LAG-3–Fc protein (hLAG-3–hFc) (Fc fusion)", "chain": "LQPGAEVPVVWAQEGAPAQLPCSPTIPLQDLSLLRRAGVTWQHQPDSGPPAAAPGHPLAPGPHPAAPSSWGPRPRRYTVLSVGPGGLRSGRLPLQPRVQLDERGRQRGDFSLWLRPARRADAGEYRAAVHLRDRALSCRLRLRLGQASMTASPPGSLRASDWVILNCSFSRPDRPASVHWFRNRGQGRVPVRESPHHHLAESFLFLPQVSPMDSGPWGCILTYRDGFNVSIMYNLTVLGLEPPTPLTVYAGAGSRVGLPCRLPAGVGTRSFLTAKWTPPGGGPDLLVTGDNGDFTLRLEDVSQAQAGTYTCHIHLQEQQLNATVTLAIITVTPKSFGSPGSLGKLLCEVTPVSGQERFVWSSLDTPSQRSFSGPWLEAQEAQLLSQPWQCQLYQGERLLGAAVYFTELSSPGAQRSGRAPGALPAGHL"}},
  "key": {"[1]": {"biological_target": "recombinant human LAG-3–Fc protein (hLAG-3–hFc) (human) (UniProt P18627)", "test": "SPR"}, "[2]": {"biological_target": "recombinant human LAG-3–Fc protein (hLAG-3–hFc) (human) (UniProt P18627)", "test": "ELISA"}, "[3]": {"biological_target": "cynomolgus monkey LAG-3 (cynomolgus monkey (endogenous in primary CD4+ T cells))", "test": "flow cytometry on cells"}, "[4]": {"biological_target": "full-length human LAG-3 on CHO-S cells (CHO-huLAG-3) (Homo sapiens) (UniProt P18627)", "test": "flow cytometry on cells"}, "[5]": {"biological_target": "hLAG-3–mFc (Homo sapiens) (UniProt P18627)", "test": "flow cytometry on cells"}, "[6]": {"biological_target": "T1, LAG-3 D1 insertion-loop peptide P60[…]75 (Homo sapiens)", "T1 chain": "PGPHPAAPSSWGPRPR", "test": "ELISA"}, "native human LAG-3": {"biological_target": "native human LAG-3 (Homo sapiens, endogenous, UniProt P18627)", "test": "immunostaining of cells or tissue"}, "[7]": {"biological_target": "LAG-3 endogenous in normal human pituitary (adenohypophysis) (Homo sapiens, endogenous, UniProt P18627)", "test": "immunostaining of cells or tissue"}, "[8]": {"biological_target": "human LAG-3 fusion protein (used for pre-absorption of LAG-3.1-G4P-FITC) (Homo sapiens, UniProt P18627)", "test": "immunostaining of cells or tissue"}, "[9]": {"biological_target": "B4", "test": "BLI"}, "[10]": {"biological_target": "B3", "test": "ELISA"}},
  "data": [
    {"molecule": "relatlimab Fab fragment (Fab 3.5)", "values": [
      {"measurement": "Kd", "setting": "[1]", "value": 10, "unit": "nM"}
    ]},
    {"molecule": "relatlimab (antibody)", "values": [
      {"measurement": "Kd", "setting": "[1]", "value": 0.12, "unit": "nM"},
      {"measurement": "EC50", "setting": "[2]", "value": 0.49, "unit": "nM"},
      {"measurement": "IC50", "setting": "[2]", "value": 0.019, "unit": "nM"},
      {"measurement": "EC50", "setting": "[3]", "value": 29.1, "unit": "nM"},
      {"measurement": "EC50", "setting": "[4]", "value": 1.46, "unit": "nM"},
      {"measurement": "IC50", "setting": "[5]", "value": 0.67, "unit": "nM"}
    ]},
    {"molecule": "B1", "values": [
      {"measurement": "EC50", "setting": "[6]", "value": 0.44, "unit": "nM"},
      {"measurement": "binding result", "setting": "native human LAG-3", "value": "binds"}
    ]},
    {"molecule": "B2", "values": [
      {"measurement": "binding result", "setting": "[7]", "value": "binds"},
      {"measurement": "binding result", "setting": "[8]", "value": "binds"}
    ]},
    {"molecule": "B3", "values": [
      {"measurement": "Kd", "setting": "[9]", "value": "> 1000", "unit": "nM"}
    ]},
    {"molecule": "B4", "values": [
      {"measurement": "EC50", "setting": "[10]", "value": 0.085, "unit": "nM"}
    ]}
  ]
}
